# Data published in patent US20240117334A1, “FACTOR B PROTEASES” (Vertex Pharmaceuticals Incorporated, priority 2021, published 2024).
# Target: Human Factor B (human) (UniProt P00751)
# Experiment: cell-based or functional assay
# Human Factor B (human), sequence (P00751 26-764 limits assumed): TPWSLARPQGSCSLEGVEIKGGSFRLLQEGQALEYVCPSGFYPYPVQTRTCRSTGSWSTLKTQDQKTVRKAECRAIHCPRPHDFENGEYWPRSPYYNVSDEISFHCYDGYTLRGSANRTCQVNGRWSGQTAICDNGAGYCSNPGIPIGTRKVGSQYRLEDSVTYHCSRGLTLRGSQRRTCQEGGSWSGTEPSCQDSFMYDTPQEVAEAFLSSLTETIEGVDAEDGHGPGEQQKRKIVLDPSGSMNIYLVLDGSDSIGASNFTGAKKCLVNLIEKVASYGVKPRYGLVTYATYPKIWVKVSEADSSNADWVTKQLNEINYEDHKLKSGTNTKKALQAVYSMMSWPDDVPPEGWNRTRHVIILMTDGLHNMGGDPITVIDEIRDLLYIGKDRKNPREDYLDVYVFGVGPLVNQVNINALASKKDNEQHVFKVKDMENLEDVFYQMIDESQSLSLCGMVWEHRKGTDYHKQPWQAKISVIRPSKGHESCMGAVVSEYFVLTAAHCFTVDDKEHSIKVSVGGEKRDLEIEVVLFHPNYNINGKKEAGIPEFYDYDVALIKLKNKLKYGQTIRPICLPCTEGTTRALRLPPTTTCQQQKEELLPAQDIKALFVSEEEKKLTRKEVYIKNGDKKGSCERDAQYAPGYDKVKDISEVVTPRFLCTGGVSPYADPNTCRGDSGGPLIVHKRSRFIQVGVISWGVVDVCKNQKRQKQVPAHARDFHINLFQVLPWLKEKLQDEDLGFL
Binder,fB Cleavage EC50,"fB Cleavage, 80% plasma EC50"
chymase C22S/D175N/A226R (enzyme) IIGGTESKPHSRPYMAYLEIVTSNGPSKFCGGFLIRRNFVLTAAHCAGRSITVTLGAHNITEEEDTWQKLEVIKQFRHPKYNTSTLHHDIMLLKLKEKASLTLAVGTLPFPSQFNFVPPGRMCRVAGWGRTGVLKPGSDTLQEVKLRLMDPQACSHFRNFDHNLQLCVGNPRKTKSAFKGDSGGPLLCAGVAQGIVSYGRSDAKPPRVFTRISHYRPWINQILQAN,0.564 µM,7.77 µM
chymase C22S/K40L/F41K/L99N/F173Y/D175N/A226R (enzyme) IIGGTESKPHSRPYMAYLEIVTSNGPSLKCGGFLIRRNFVLTAAHCAGRSITVTLGAHNITEEEDTWQKLEVIKQFRHPKYNTSTNHHDIMLLKLKEKASLTLAVGTLPFPSQFNFVPPGRMCRVAGWGRTGVLKPGSDTLQEVKLRLMDPQACSHYRNFDHNLQLCVGNPRKTKSAFKGDSGGPLLCAGVAQGIVSYGRSDAKPPRVFTRISHYRPWINQILQAN,0.151 µM,–
chymase C22S/F41K/L99N/F173Y/D175N/S218L/A226R (enzyme) IIGGTESKPHSRPYMAYLEIVTSNGPSKKCGGFLIRRNFVLTAAHCAGRSITVTLGAHNITEEEDTWQKLEVIKQFRHPKYNTSTNHHDIMLLKLKEKASLTLAVGTLPFPSQFNFVPPGRMCRVAGWGRTGVLKPGSDTLQEVKLRLMDPQACSHYRNFDHNLQLCVGNPRKTKSAFKGDSGGPLLCAGVAQGIVSYGRLDAKPPRVFTRISHYRPWINQILQAN,0.077 µM,–
chymase C22S/K40L/F41K/L99N/D175N/S218L/A226R (enzyme) IIGGTESKPHSRPYMAYLEIVTSNGPSLKCGGFLIRRNFVLTAAHCAGRSITVTLGAHNITEEEDTWQKLEVIKQFRHPKYNTSTNHHDIMLLKLKEKASLTLAVGTLPFPSQFNFVPPGRMCRVAGWGRTGVLKPGSDTLQEVKLRLMDPQACSHFRNFDHNLQLCVGNPRKTKSAFKGDSGGPLLCAGVAQGIVSYGRLDAKPPRVFTRISHYRPWINQILQAN,0.295 µM,–
chymase C22S/A220S/A226R (enzyme) IIGGTESKPHSRPYMAYLEIVTSNGPSKFCGGFLIRRNFVLTAAHCAGRSITVTLGAHNITEEEDTWQKLEVIKQFRHPKYNTSTLHHDIMLLKLKEKASLTLAVGTLPFPSQFNFVPPGRMCRVAGWGRTGVLKPGSDTLQEVKLRLMDPQACSHFRDFDHNLQLCVGNPRKTKSAFKGDSGGPLLCAGVAQGIVSYGRSDSKPPRVFTRISHYRPWINQILQAN,5.56 µM,–
chymase C22S/K40L/L99N/F173Y/D175N/S218L/A226R (enzyme) IIGGTESKPHSRPYMAYLEIVTSNGPSLFCGGFLIRRNFVLTAAHCAGRSITVTLGAHNITEEEDTWQKLEVIKQFRHPKYNTSTNHHDIMLLKLKEKASLTLAVGTLPFPSQFNFVPPGRMCRVAGWGRTGVLKPGSDTLQEVKLRLMDPQACSHYRNFDHNLQLCVGNPRKTKSAFKGDSGGPLLCAGVAQGIVSYGRLDAKPPRVFTRISHYRPWINQILQAN,0.113 µM,–
chymase C22S/K40L/F41K/F173Y/D175N/S218L/A226R (enzyme) IIGGTESKPHSRPYMAYLEIVTSNGPSLKCGGFLIRRNFVLTAAHCAGRSITVTLGAHNITEEEDTWQKLEVIKQFRHPKYNTSTLHHDIMLLKLKEKASLTLAVGTLPFPSQFNFVPPGRMCRVAGWGRTGVLKPGSDTLQEVKLRLMDPQACSHYRNFDHNLQLCVGNPRKTKSAFKGDSGGPLLCAGVAQGIVSYGRLDAKPPRVFTRISHYRPWINQILQAN,0.077 µM,–
chymase C22S/K40M/F41I/L99H/G151R/F173S/S218L/A226R (enzyme) IIGGTESKPHSRPYMAYLEIVTSNGPSMICGGFLIRRNFVLTAAHCAGRSITVTLGAHNITEEEDTWQKLEVIKQFRHPKYNTSTHHHDIMLLKLKEKASLTLAVGTLPFPSQFNFVPPGRMCRVAGWGRTGVLKPRSDTLQEVKLRLMDPQACSHSRDFDHNLQLCVGNPRKTKSAFKGDSGGPLLCAGVAQGIVSYGRLDAKPPRVFTRISHYRPWINQILQAN,8.2 µM,–
chymase C22S/A226R/F228A (enzyme) IIGGTESKPHSRPYMAYLEIVTSNGPSKFCGGFLIRRNFVLTAAHCAGRSITVTLGAHNITEEEDTWQKLEVIKQFRHPKYNTSTLHHDIMLLKLKEKASLTLAVGTLPFPSQFNFVPPGRMCRVAGWGRTGVLKPGSDTLQEVKLRLMDPQACSHFRDFDHNLQLCVGNPRKTKSAFKGDSGGPLLCAGVAQGIVSYGRSDAKPPRVATRISHYRPWINQILQAN,5.07 µM,–

# Second part, the binder after the results:
fB Cleavage EC50,"fB Cleavage, 80% plasma EC50",Binder
4.42 µM,–,chymase C22S/V138A/S189T/A226R (enzyme) IIGGTESKPHSRPYMAYLEIVTSNGPSKFCGGFLIRRNFVLTAAHCAGRSITVTLGAHNITEEEDTWQKLEVIKQFRHPKYNTSTLHHDIMLLKLKEKASLTLAVGTLPFPSQFNFVPPGRMCRAAGWGRTGVLKPGSDTLQEVKLRLMDPQACSHFRDFDHNLQLCVGNPRKTKTAFKGDSGGPLLCAGVAQGIVSYGRSDAKPPRVFTRISHYRPWINQILQAN
11.8 µM,–,chymase C22S/K40M/F41V/L99N/G151R/F173S/S218E/A226R (enzyme) IIGGTESKPHSRPYMAYLEIVTSNGPSMVCGGFLIRRNFVLTAAHCAGRSITVTLGAHNITEEEDTWQKLEVIKQFRHPKYNTSTNHHDIMLLKLKEKASLTLAVGTLPFPSQFNFVPPGRMCRVAGWGRTGVLKPRSDTLQEVKLRLMDPQACSHSRDFDHNLQLCVGNPRKTKSAFKGDSGGPLLCAGVAQGIVSYGREDAKPPRVFTRISHYRPWINQILQAN
8.14 µM,–,chymase C22S/S189T/A190S/F191S/A220L/A226R (enzyme) IIGGTESKPHSRPYMAYLEIVTSNGPSKFCGGFLIRRNFVLTAAHCAGRSITVTLGAHNITEEEDTWQKLEVIKQFRHPKYNTSTLHHDIMLLKLKEKASLTLAVGTLPFPSQFNFVPPGRMCRVAGWGRTGVLKPGSDTLQEVKLRLMDPQACSHFRDFDHNLQLCVGNPRKTKTSSKGDSGGPLLCAGVAQGIVSYGRSDLKPPRVFTRISHYRPWINQILQAN
1.55 µM,–,chymase C22S/S189T/A226R/F228M (enzyme) IIGGTESKPHSRPYMAYLEIVTSNGPSKFCGGFLIRRNFVLTAAHCAGRSITVTLGAHNITEEEDTWQKLEVIKQFRHPKYNTSTLHHDIMLLKLKEKASLTLAVGTLPFPSQFNFVPPGRMCRVAGWGRTGVLKPGSDTLQEVKLRLMDPQACSHFRDFDHNLQLCVGNPRKTKTAFKGDSGGPLLCAGVAQGIVSYGRSDAKPPRVMTRISHYRPWINQILQAN
3.81 µM,–,chymase C22S/V138A/G145D/S189T/A190S/A226R (enzyme) IIGGTESKPHSRPYMAYLEIVTSNGPSKFCGGFLIRRNFVLTAAHCAGRSITVTLGAHNITEEEDTWQKLEVIKQFRHPKYNTSTLHHDIMLLKLKEKASLTLAVGTLPFPSQFNFVPPGRMCRAAGWGRTDVLKPGSDTLQEVKLRLMDPQACSHFRDFDHNLQLCVGNPRKTKTSFKGDSGGPLLCAGVAQGIVSYGRSDAKPPRVFTRISHYRPWINQILQAN
2.98 µM,–,chymase C22S/V138S/S189T/A226R/F228M (enzyme) IIGGTESKPHSRPYMAYLEIVTSNGPSKFCGGFLIRRNFVLTAAHCAGRSITVTLGAHNITEEEDTWQKLEVIKQFRHPKYNTSTLHHDIMLLKLKEKASLTLAVGTLPFPSQFNFVPPGRMCRSAGWGRTGVLKPGSDTLQEVKLRLMDPQACSHFRDFDHNLQLCVGNPRKTKTAFKGDSGGPLLCAGVAQGIVSYGRSDAKPPRVMTRISHYRPWINQILQAN
4.16 µM,–,chymase C22S/V138L/S189T/A190G/A226R (enzyme) IIGGTESKPHSRPYMAYLEIVTSNGPSKFCGGFLIRRNFVLTAAHCAGRSITVTLGAHNITEEEDTWQKLEVIKQFRHPKYNTSTLHHDIMLLKLKEKASLTLAVGTLPFPSQFNFVPPGRMCRLAGWGRTGVLKPGSDTLQEVKLRLMDPQACSHFRDFDHNLQLCVGNPRKTKTGFKGDSGGPLLCAGVAQGIVSYGRSDAKPPRVFTRISHYRPWINQILQAN
0.181 µM,7.21 µM,chymase C22S/K40M/F41R/L99H/F173Y/D175W/S218L/A226R (enzyme) IIGGTESKPHSRPYMAYLEIVTSNGPSMRCGGFLIRRNFVLTAAHCAGRSITVTLGAHNITEEEDTWQKLEVIKQFRHPKYNTSTHHHDIMLLKLKEKASLTLAVGTLPFPSQFNFVPPGRMCRVAGWGRTGVLKPGSDTLQEVKLRLMDPQACSHYRWFDHNLQLCVGNPRKTKSAFKGDSGGPLLCAGVAQGIVSYGRLDAKPPRVFTRISHYRPWINQILQAN
12.4 µM,–,chymase C22S/P38Q/V138I/A226R/F228A (enzyme) IIGGTESKPHSRPYMAYLEIVTSNGQSKFCGGFLIRRNFVLTAAHCAGRSITVTLGAHNITEEEDTWQKLEVIKQFRHPKYNTSTLHHDIMLLKLKEKASLTLAVGTLPFPSQFNFVPPGRMCRIAGWGRTGVLKPGSDTLQEVKLRLMDPQACSHFRDFDHNLQLCVGNPRKTKSAFKGDSGGPLLCAGVAQGIVSYGRSDAKPPRVATRISHYRPWINQILQAN
2.94 µM,–,chymase C22S/V138A/A226R (enzyme) IIGGTESKPHSRPYMAYLEIVTSNGPSKFCGGFLIRRNFVLTAAHCAGRSITVTLGAHNITEEEDTWQKLEVIKQFRHPKYNTSTLHHDIMLLKLKEKASLTLAVGTLPFPSQFNFVPPGRMCRAAGWGRTGVLKPGSDTLQEVKLRLMDPQACSHFRDFDHNLQLCVGNPRKTKSAFKGDSGGPLLCAGVAQGIVSYGRSDAKPPRVFTRISHYRPWINQILQAN
1.77 µM,–,chymase C22S/V138A/S189T/A226R/F228M (enzyme) IIGGTESKPHSRPYMAYLEIVTSNGPSKFCGGFLIRRNFVLTAAHCAGRSITVTLGAHNITEEEDTWQKLEVIKQFRHPKYNTSTLHHDIMLLKLKEKASLTLAVGTLPFPSQFNFVPPGRMCRAAGWGRTGVLKPGSDTLQEVKLRLMDPQACSHFRDFDHNLQLCVGNPRKTKTAFKGDSGGPLLCAGVAQGIVSYGRSDAKPPRVMTRISHYRPWINQILQAN
6.71 µM,–,chymase C22S/V138T/A190S/V213A/A226R (enzyme) IIGGTESKPHSRPYMAYLEIVTSNGPSKFCGGFLIRRNFVLTAAHCAGRSITVTLGAHNITEEEDTWQKLEVIKQFRHPKYNTSTLHHDIMLLKLKEKASLTLAVGTLPFPSQFNFVPPGRMCRTAGWGRTGVLKPGSDTLQEVKLRLMDPQACSHFRDFDHNLQLCVGNPRKTKSSFKGDSGGPLLCAGVAQGIASYGRSDAKPPRVFTRISHYRPWINQILQAN
0.23 µM,5.14 µM,chymase C22S/K40M/F41R/L99N/F173Y/D175S/S218L/A226R (enzyme) IIGGTESKPHSRPYMAYLEIVTSNGPSMRCGGFLIRRNFVLTAAHCAGRSITVTLGAHNITEEEDTWQKLEVIKQFRHPKYNTSTNHHDIMLLKLKEKASLTLAVGTLPFPSQFNFVPPGRMCRVAGWGRTGVLKPGSDTLQEVKLRLMDPQACSHYRSFDHNLQLCVGNPRKTKSAFKGDSGGPLLCAGVAQGIVSYGRLDAKPPRVFTRISHYRPWINQILQAN
